The values that follow come from article PMC10496648.

The target in the experiment is Kv4.2-YFP (mouse) (UniProt Q9Z0V2). The experiment in a line: FRET or BRET. (In general: BRET reads energy transfer from a luciferase to a nearby fluorophore.)
Chain of UniProt Q9Z0V2 (Q9Z0V2 whole entry): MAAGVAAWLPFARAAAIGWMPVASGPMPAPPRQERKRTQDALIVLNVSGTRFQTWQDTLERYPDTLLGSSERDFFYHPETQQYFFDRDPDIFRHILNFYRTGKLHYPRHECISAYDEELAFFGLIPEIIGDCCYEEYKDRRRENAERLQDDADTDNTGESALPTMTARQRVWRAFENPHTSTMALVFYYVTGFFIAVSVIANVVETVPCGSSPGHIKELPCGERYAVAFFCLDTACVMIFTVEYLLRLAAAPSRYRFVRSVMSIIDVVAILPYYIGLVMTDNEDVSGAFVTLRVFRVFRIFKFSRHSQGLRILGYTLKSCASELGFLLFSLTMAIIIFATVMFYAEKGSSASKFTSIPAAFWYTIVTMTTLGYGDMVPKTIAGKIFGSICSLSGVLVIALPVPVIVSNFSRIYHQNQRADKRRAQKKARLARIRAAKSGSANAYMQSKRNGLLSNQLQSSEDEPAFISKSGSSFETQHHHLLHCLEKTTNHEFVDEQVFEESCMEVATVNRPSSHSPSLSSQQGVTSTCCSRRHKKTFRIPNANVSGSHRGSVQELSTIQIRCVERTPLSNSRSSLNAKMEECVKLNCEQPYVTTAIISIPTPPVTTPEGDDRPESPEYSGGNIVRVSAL

Substance “KChIP3a-CFP (text) / KChIP2c-CFP (legend, methods) (from UniProt Q9JM59-3 1-220) (natural protein)” had an FRET efficiency of 11.2% and a stoichiometry N of 1.

In general, stoichiometry N refers to the number of molecules, sites or subunits per partner or assembly.
